According to paper PMC3285579:

Experiments:
[1] = target: MBP-WSP-1(334 aa-608 aa) (C. elegans); experiment: pull-down; MBP pull-down with competitors (Figure 6B): MBP-WSP-1 on amylose resin; soluble extracts of GST-NCK-1 F.L., GST-UNC-34 F.L. and His-VAB-1 as load; band intensities quantified from at least two independent blots with Image J; wash 20 mM Tris-Cl pH 7.5, 200 mM NaCl, 1 mM EDTA, 1 mM DTT
[2] = target: GST-NCK-1 F.L., full length NCK-1 (1 aa-397 aa) (C. elegans); experiment: as above

MBP-WSP-1(334 aa-608 aa) (C. elegans), sequence (main, as listed by the source): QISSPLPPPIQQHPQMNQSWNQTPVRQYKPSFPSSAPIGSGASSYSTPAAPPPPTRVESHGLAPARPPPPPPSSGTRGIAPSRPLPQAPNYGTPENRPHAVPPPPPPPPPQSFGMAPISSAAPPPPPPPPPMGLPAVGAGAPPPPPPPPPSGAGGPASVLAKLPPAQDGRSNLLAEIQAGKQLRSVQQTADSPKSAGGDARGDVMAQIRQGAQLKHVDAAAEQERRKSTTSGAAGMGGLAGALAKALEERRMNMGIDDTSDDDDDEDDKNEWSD

For “GST-NCK-1 F.L., full length NCK-1 (1 aa-397 aa) (natural protein)”, the relative intensity of NCK-1 pulled down by MBP-WSP-1 with UNC-34 and VAB-1 added (NCK-1 alone = 1.0) [1] was 1.3.

“GST-UNC-34 F.L., full length UNC-34 (1 aa-454) (natural protein)” showed a relative intensity of NCK-1 pulled down by MBP-WSP-1 with UNC-34 added (without UNC-34 = 1.0) [2] of 0.3.
